Reference: the domain aggregation screens of Martell et al. (2025)

Assay: soluble fraction after stress (log2 fold change); higher = more stays soluble; pooled small domains, quantitative proteomics
Settings: stress: 50 degC
Summary of the method: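 The stress applied to every library was 50°C. These custom libraries of small protein domains were pooled and measured at high throughput with quantitative proteomics as the read-out. Aggregation propensity is expressed as the base-two logarithm of the fold change in how much of each protein remains soluble. The higher the value, the more of that protein stays in solution.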

“HMLAAGTSLTVDTESSNLNIRQEPSTEGVILGKAAKGEVVTLVEQSSDEWWKIKTKDGEEGYAYARYLR” and “HMSEQLKQIAERIKELRNIAGLGEEELAAKLDIPVDTYREYESGNVDIPVSFLYKISGMFNVELTAIL” are within 0.2 log units of each other in “soluble fraction (log2)” value: 0.203 for the first, 0.0417 for the second.

“HMRPSGTAGILRYLSSGAIRGIGATTAQRLVSEFGEKTLDVMENEPERVAMLKGISKSKAEDFSLQLKQS” and “HMNMTDVLVVNQTVRGGTQITESMLSVKKVDKSSLPDNYLKASLKDEVVGKYFDLGLTSGGVLTKDNISVS” are within 0.2 log units of each other in “soluble fraction (log2)” value: 0.0105 for the first, 0.00597 for the second.

First: HMSVADNALSRQAIESRIALFIQNEDPNHPRSDADIQKELAQAGVVISRRAITKYRNHLHIPSASLRRR
Second: HMATESYYVLKADVPAKTLVTQEMVEEIKVSKGGAPVNSIKIDNIKEKGVYTSIPLLKGDVLSASNTG
The “soluble fraction (log2)” value of the first is lower: -1.03 for the first, 0.00692 for the second.

Going from “HMNDELMEQIDEWHKAEKHQEIIDALEQIPEAERDFETTGFLARAYNNIEEYAKAADLLESVRE” to “HMQYSIQVNKLLKAMREDVWYTANEILDLLKLKSKETLRKNYLDPAINNKLIILELPDKPTSRNQRYKI”, the “soluble fraction (log2)” value falls from 0.0873 to -1.66.

First: HMNLGDLYVIMEIAGQRDDVSARLMNREGQTFLVKTGTKLKSGDVVKEITPTYIKTDHDGEEAFLYF
Second: HMNMSVGAALRRRRNELGMTLRELADEAELTSGFLSQVENDRVSPSLKSLGRIAEVLRIPLFQLLS
The “soluble fraction (log2)” value of the first is higher: -0.542 for the first, -1.29 for the second.

Going from “HMKKHALFTLFKHHNANGTTVWYARFWDDATQRYAIARSTGVLAQGKRERHDEAITVAREMASSIQFS” to “HMNIAEIGQKVAQQRVALGISQERLAKLSDLSRSTIHHLEHGTLHEIGAAKLFKLLSLLDIQLK”, the “soluble fraction (log2)” value rises from -2.6 to -0.761.

Compared with “HMNLDELGNRIREQRIKQRLKQQDIANALMLSAQAVSKWERGENAPDISVLPDLVKILGVSVDWLLTGP”, “HMWPTPRTWSALMNELNLYKENHGYANIVDIPSEKIRRMADGIIGEDMAVRYVAFLQSHASS” is lower in “soluble fraction (log2)” value: -0.734 for the first, -1.6 for the second.

First: HMGVKIELNENEQAIFAAMQKQVEAVLPDLRAQFADMSNKAWDNSVKTLTKNNLLKVSKEAEILFIRL
Second: HMSTTDGIERFLASGAVKGIGRTMAARIVEHFGSRTLTVMESEPERLTEVAGIGRKKAESIAASYAELS
The “soluble fraction (log2)” value of the first is lower: -0.718 for the first, -0.156 for the second.

“HMENPPISVVIPPSFRGQRIDKALGSLIGDYSRSKIQQWLQSGLVQSAGEPLLPKYTVLGNEQILIAVPS” and “HMLENSLDHIEGIGPKTKDTLLTYFKSVSKIKSANPSILAELIGAAKTKILLAAFEKEKTTS” are within 0.2 log units of each other in “soluble fraction (log2)” value: 0.00382 for the first, -0.017 for the second.

Going from “HMTDSSEILEAALKEAEDAAHEVLNGTFSVQLEPQKAYIRRLQHMLIDRMNLSSTSKGKEPYRSLLVYR” to “HMVQVHEWTNKAGRTIKAKFVRGDAQSVTIFLGGRNFVLKIADLSEESQALARKLSAPPPPP”, the “soluble fraction (log2)” value rises from -1.11 to -0.607.

“HMIPYSDLLKLLSNDAMPKFRNKDGWAKIHALETYLASRWSYQEYGFASFTVLLETVHNAEIRNDSVRLM” and “HMDTIVVAARSIQARQTLTESDLRVEEQEIGAASDKYYTDIAEAVGLVSSRRLSPGQPILRTM” are within 0.2 log units of each other in “soluble fraction (log2)” value: -0.343 for the first, -0.28 for the second.

First: HMKSSLAKNLETLMQERQISQTRLSKISGVSQSYIFKILNDQIKKPSLDTLEKLATALDSTVAQLNH
Second: HMLDLPVRTINGRQYYYYEVRNRETVYGLSKRLGVTREEIVRYNPSMADGLKRGAILYFPVDEFSDRI
The “soluble fraction (log2)” value of the first is higher: -0.00953 for the first, -0.281 for the second.

Going from “HMRILGIDPGYAITGYSIIDYVGNKFKLIDSGAVLTKAGVSFPLRLTKIYDDLSMIIDEYKPDA” to “HMPNIQLARNLKYLRLAYGLTQDDLGAFLNISRQAYSNYENLKRSPDLDSLIRLASLYHLSLDDLVSR”, the “soluble fraction (log2)” value falls from -0.207 to -3.09.

First: HMHSLLDDIPNVGEKRKRILLTHFQSLEEIKAATVEELERLPQINRKAAESIYTFFHSQPIR
Second: HMANPEFAGYINGKPYFGPTHQHRGVKMLGATHTRNPHPLVWDSIAESLANYDSRFRWSGGQIL
The “soluble fraction (log2)” value of the first is higher: -0.0679 for the first, -0.429 for the second.

“HMGAVFEFIMEEEEPERIDKLLSSALPDLSRSYLQKLVKEGAVLVNKKEVKPNHKVNPGDVVEISVPEPE” and “HMKQQAYEQGKAAYQSGDWLRAVTQLGQVKEAGEKNGEVDHLLGNAYMKLGQFESAAYAYNSALEDVA” are within 0.2 log units of each other in “soluble fraction (log2)” value: 0.18 for the first, 0.269 for the second.

First: HMSNKYYETILDWFKSQIMSGELKEGDTIPSERELATRFGVSRVPVREALRILEYIGIVSNTADGMTVQKV
Second: HMSSSLDQLTVREREILAQVSRGLSNKAIARELGISHDTVKLHVRHILSKLGFSSRVEAAVFAIEHRIG
The “soluble fraction (log2)” value of the first is higher: -0.879 for the first, -1.72 for the second.

“HMATYETEVISGVNLRSAPNTSASVYRLLSKGEDIHVIQKVNDYWLKVQTKDGKIGYISASSKYTNYIA” and “HMSEYIFGKNVVKEAFNNPSRIEEIYVLDKNMEFVSLAKKYHIKYTVITSSEMNKMVSGNHQGVVALVK” are within 0.2 log units of each other in “soluble fraction (log2)” value: -0.29 for the first, -0.277 for the second.

First: HMGGGEYTVAKGDTLWKIAAQTLGSPTRYAEIYNLNKDVIEETARGRGKRDSSNGHWLFPGTALKIPGT
Second: HMEGLATRLRFLRQARGLSYHALARLSGVTHTALHQIEAGKNIPGLDTAEKIAMALDVDPRWFAYGRGDPS
The “soluble fraction (log2)” value of the first is higher: 0.355 for the first, -1.31 for the second.

First: HMGVKTDKYYYQMATETRVNKHYGLSNQYIATLISEYPRSPLIPNASILSKKNNADLALIDQSINQR
Second: HMHDLGEQIIEKLRASGGISTLTDKSDPDAIYRQFKVSKKKYKQALGTLYKSRRITLAPNQIKLA
The “soluble fraction (log2)” value of the first is lower: -0.397 for the first, -0.129 for the second.

Compared with “HMRRELDSEHKRQEILFAAKRLLLAEGYDATSMSRLAKEAGVAPNTLYWYFKDKDELLIAILDELVAE”, “HMNALNDLESKIFEEVVKAPEIIMNMTIREFASTVHASPTTIVRMTHKLGFSGWNELKTYLQKQKHQIS” is higher in “soluble fraction (log2)” value: -1.72 for the first, -1.02 for the second.

“HMPTMVAQINEIVQAKLPGSGLKDYTIRLVESQRDGVVVWVNGTRYLGVDEVAEPQVQALLKEAVAEWERS” and “HMYSVVGKKGIVIEDINYSTGTGQIKSEGEVWSAKTNEQINIPKGTEIEIESIDGVKVIVKPL” are within 0.2 log units of each other in “soluble fraction (log2)” value: -0.132 for the first, 0.0184 for the second.

Going from “HMEDNKLKNEIKNELVSHLEKPYSVEDLADALKYHGSAAFKLIVQELAILERERAVVVTHDGNFKINSS” to “HMTKEEFLYELKKELSALDSAEATAYNLRYYSDYIDAEIAKGRSEQEVLDELGNPRWLVNSIKESG”, the “soluble fraction (log2)” value rises from -0.619 to 0.122.

“HMDGPGAGGRFLAEDLGTGKMTLEALQRHYVTLVYSRTGKYEETARRLEIDRRTVKKYLDEELLAELRET” and “HMTPVFGEEETVLQAAVRGIISDTDQWTMEAEAKSMLNQLGFSDYEEKMAHMSGGQKKRVALVNALLTP” are within 0.2 log units of each other in “soluble fraction (log2)” value: 0.084 for the first, 0.0128 for the second.

Going from “HMFGEKEFYQWIGKTAGEKFSGLPAAVIKSLYKYWREYNLSEEDIMGFIRQTELLPKRTPLDVELFFEK” to “HMPFNREYWIEQLLKEVGLMGTPYAELDKHEVELDSPTGRASGFKVNAKTYVDQQLLFIENEYNNQPE”, the “soluble fraction (log2)” value rises from -0.456 to -0.153.

Compared with “HMELSAEGWVDGTGVRMRASASTDSEVVRVTEDGESLDITGVSGTWYRVTAGGVSGYIRSDYVSLEEP”, “HMDNIEIGNRIREIRIKKNISVFELAYRTKTSQSHIYQIEGGSQNMSIELLFKIADTLETDPNTILGV” is lower in “soluble fraction (log2)” value: -0.287 for the first, -3.78 for the second.

Compared with “HMYPGQILEIYLDEIKRLYLNGLSSADIFAEIKEGSIPSVKKAIRSMKDGSAPVKITEAEESTRIAPS”, “HMKESFAQLFSLLTPTEQKVAALISQGFSNKDIAAKMFISLSTVKTHTNHIFAKMGVANRNALVAKVNN” is lower in “soluble fraction (log2)” value: -0.441 for the first, -1.08 for the second.

Going from “HMTLDDSFYQKADEIIANHTKEERSLIPIIQDIQAEYRYLPPELLTYVAKEIGITDARAYSVASFYENFS” to “HMSSHNIALDQDVVVTQLKGKVYLVAADGSQKQLAEGDILPKDAVLITPEGASFKGGNQTFTLS”, the “soluble fraction (log2)” value rises from -0.446 to 0.17.

With “HMIIYGLNPVKDFINLFPNKISTLFISKNKLSDSEMKSVVNINTVYVSDAELKRITGTTKHQSLAAEID” the “soluble fraction (log2)” value was -1.21.
